# From PMC11326647, “In vitro reconstitution reveals membrane clustering and RNA recruitment by the enteroviral AAA+ ATPase 2C” (PLOS Pathogens, 2023)
# Target: His6-MBP-tagged poliovirus 2C([change]) (residues 1-11, 41-329) (poliovirus type 1 Mahoney) (UniProt P03300)
# Assay: mass photometry
substance,measurement,value
"His6-MBP-tagged poliovirus 2C([change]) (residues 1-11, 41-329) (from UniProt P03300 1128-1456) (natural protein)",stoichiometry N,2
